Assay results: article PMC12831459, “Identification and characterization of a TGF-β-independent SMAD4–NFATc1–STAT3 regulatory axis” (Journal of Molecular Cell Biology, 2025)

Target: T1, GST-SMAD4 (full-length, WT) (human, UniProt Q13485 1-552)
T1 construct: SMAD4, human, Human ORFeome V8.1 clone; Gateway mammalian GST expression vector (Li et al., 2017); details in the Supplementary material; also called GST-tagged SMAD4 FL; GST-tagged SMAD4 WT; source: HEK293T, transfected, in lysate
T1 sequence (looked up): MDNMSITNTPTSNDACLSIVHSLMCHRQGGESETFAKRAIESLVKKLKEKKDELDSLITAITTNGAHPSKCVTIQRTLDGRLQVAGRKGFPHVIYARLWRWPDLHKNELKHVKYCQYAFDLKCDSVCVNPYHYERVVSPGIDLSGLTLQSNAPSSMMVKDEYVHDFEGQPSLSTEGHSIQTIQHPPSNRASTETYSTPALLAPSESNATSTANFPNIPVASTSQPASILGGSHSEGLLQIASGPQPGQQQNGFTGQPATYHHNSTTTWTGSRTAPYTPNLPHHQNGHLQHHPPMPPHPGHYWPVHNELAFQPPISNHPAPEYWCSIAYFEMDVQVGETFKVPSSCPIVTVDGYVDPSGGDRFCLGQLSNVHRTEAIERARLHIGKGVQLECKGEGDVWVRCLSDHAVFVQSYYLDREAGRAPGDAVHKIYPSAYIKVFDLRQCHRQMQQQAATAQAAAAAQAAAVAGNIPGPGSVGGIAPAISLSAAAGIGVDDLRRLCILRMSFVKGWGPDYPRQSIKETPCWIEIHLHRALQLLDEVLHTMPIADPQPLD
Experiment: FRET or BRET; TR-FRET of single pairs: GST-SMAD4 (WT, domain truncations, truncation mutants) with VF-tagged partners; signal as fold change over empty vector controls
Settings: partners not purified

TR-FRET PPI signal, fold-of-change (FOC) over negative controls: > 3 fold
B1: Venus-Flag-tagged NFATc1 (VF-NFATc1), full-length WT (natural protein, human, UniProt O95644-2 1-716, looked up)
chain: MPSTSFPVPSKFPLGPAAAVFGRGETLGPAPRAGGTMKSAEEEHYGYASSNVSPALPLPTAHSTLPAPCHNLQTSTPGIIPPADHPSGYGAALDGGPAGYFLSSGHTRPDGAPALESPRIEITSCLGLYHNNNQFFHDVEVEDVLPSSKRSPSTATLSLPSLEAYRDPSCLSPASSLSSRSCNSEASSYESNYSYPYASPQTSPWQSPCVSPKTTDPEEGFPRGLGACTLLGSPRHSPSTSPRASVTEESWLGARSSRPASPCNKRKYSLNGRQPPYSPHHSPTPSPHGSPRVSVTDDSWLGNTTQYTSSAIVAAINALTTDSSLDLGDGVPVKSRKTTLEQPPSVALKVEPVGEDLGSPPPPADFAPEDYSSFQHIRKGGFCDQYLAVPQHPYQWAKPKPLSPTSYMSPTLPALDWQLPSHSGPYELRIEVQPKSHHRAHYETEGSRGAVKASAGGHPIVQLHGYLENEPLMLQLFIGTADDRLLRPHAFYQVHRITGKTVSTTSHEAILSNTKVLEIPLLPENSMRAVIDCAGILKLRNSDIELRKGETDIGRKNTRVRLVFRVHVPQPSGRTLSLQVASNPIECSQRSAQELPLVEKQSTDSYPVVGGKKMVLSGHNFLQDSKVIFVEKAPDGHHVWEMEAKTDRDLCKPNSLVVEIPPFRNQRITSPVHVSFYVCNGKRKRSQYQRFTYLPANGNAIFLTVSREHERVGCFF
notes: NFATc1, human, Human ORFeome V8.1 clone; also called VF-tagged NFATc1 FL; VF-tagged NFATc1 WT; source: HEK293T, transfected, in lysate; in live cells for the BRET screen
